{
  "source": "patent US20040018971A1",
  "about": "(published 2004)",
  "data": [
    {"target": "T1, HLA-A*2401 (human)", "T1 construct": "Purified HLA class I molecule (kind: MHC class I); also called A*2402", "experiment": "inhibition of 125I-labelled standard peptide binding to purified HLA, gel filtration", "values": [
      {"binder": "CYQDTILW (also called Her2/neu.162 (8-mer))", "note": "[HER2/neu peptide, position 162, 8 amino acids]", "relative binding ratio": "0.012 ratio (IC50 of standard peptide / IC50 of test peptide)"},
      {"binder": "AMPNQAQMRI (also called Her2/neu.705 (10-mer))", "note": "[HER2/neu peptide, position 705, 10 amino acids]", "relative binding ratio": "0.0002 ratio (IC50 of standard peptide / IC50 of test peptide)"},
      {"binder": "AFGTVYKGIW (also called Her2/neu.730 (10-mer))", "note": "[HER2/neu peptide, position 730, 10 amino acids]", "relative binding ratio": "0.001 ratio (IC50 of standard peptide / IC50 of test peptide)"},
      {"binder": "CFVHTVPW (also called Her2/neu.475 (8-mer))", "note": "[HER2/neu peptide, position 475, 8 amino acids]", "relative binding ratio": "0.019 ratio (IC50 of standard peptide / IC50 of test peptide)"},
      {"binder": "CYGLGMEHL (also called Her2/neu.342 (9-mer))", "note": "[HER2/neu peptide, position 342, 9 amino acids]", "relative binding ratio": "0.018 ratio (IC50 of standard peptide / IC50 of test peptide)"},
      {"binder": "DFGLARLLDI (also called Her2/neu.863 (10-mer))", "note": "[HER2/neu peptide, position 863, 10 amino acids]", "relative binding ratio": "0.0002 ratio (IC50 of standard peptide / IC50 of test peptide)"},
      {"binder": "EFAGCKKIF (also called Her2/neu.363 (9-mer))", "note": "[HER2/neu peptide, position 363, 9 amino acids]", "relative binding ratio": "0.0003 ratio (IC50 of standard peptide / IC50 of test peptide)"},
      {"binder": "CFVHTVPWDQL (also called Her2/neu.475 (11-mer))", "note": "[HER2/neu peptide, position 475, 11 amino acids]", "relative binding ratio": "0.0003 ratio (IC50 of standard peptide / IC50 of test peptide)"},
      {"binder": "AFSPAFDNL (also called Her2/neu.1212 (9-mer))", "note": "[HER2/neu peptide, position 1212, 9 amino acids]", "relative binding ratio": "0.0011 ratio (IC50 of standard peptide / IC50 of test peptide)"},
      {"binder": "AMPNQAQMRIL (also called Her2/neu.705 (11-mer))", "note": "[HER2/neu peptide, position 705, 11 amino acids]", "relative binding ratio": "-0.0003 ratio (IC50 of standard peptide / IC50 of test peptide)"},
      {"binder": "AFGTVYKGI (also called Her2/neu.730 (9-mer))", "note": "[HER2/neu peptide, position 730, 9 amino acids]", "relative binding ratio": "0.0002 ratio (IC50 of standard peptide / IC50 of test peptide)"},
      {"binder": "CYQDTILWKDI (also called Her2/neu.162 (11-mer))", "note": "[HER2/neu peptide, position 162, 11 amino acids]", "relative binding ratio": "0.0016 ratio (IC50 of standard peptide / IC50 of test peptide)"},
      {"binder": "AFDNLYYW (also called Her2/neu.1216 (8-mer))", "note": "[HER2/neu peptide, position 1216, 8 amino acids]", "relative binding ratio": "0.0039 ratio (IC50 of standard peptide / IC50 of test peptide)"},
      {"binder": "AYSLTLQGL (also called Her2/neu.440 (9-mer))", "note": "[HER2/neu peptide, position 440, 9 amino acids]", "relative binding ratio": "0.13 ratio (IC50 of standard peptide / IC50 of test peptide)"},
      {"binder": "DFGLARLL (also called Her2/neu.863 (8-mer))", "note": "[HER2/neu peptide, position 863, 8 amino acids]", "relative binding ratio": "0.0005 ratio (IC50 of standard peptide / IC50 of test peptide)"},
      {"binder": "AYSLTLQGLGI (also called Her2/neu.440 (11-mer))", "note": "[HER2/neu peptide, position 440, 11 amino acids]", "relative binding ratio": "0.023 ratio (IC50 of standard peptide / IC50 of test peptide)"},
      {"binder": "CMQIAKGMSYL (also called Her2/neu.826 (11-mer))", "note": "[HER2/neu peptide, position 826, 11 amino acids]", "relative binding ratio": "-0.0003 ratio (IC50 of standard peptide / IC50 of test peptide)"},
      {"binder": "AWPDSLPDL (also called Her2/neu.414 (9-mer))", "note": "[HER2/neu peptide, position 414, 9 amino acids]", "relative binding ratio": "0.0041 ratio (IC50 of standard peptide / IC50 of test peptide)"},
      {"binder": "AFGTVYKGIWI (also called Her2/neu.730 (11-mer))", "note": "[HER2/neu peptide, position 730, 11 amino acids]", "relative binding ratio": "0.0008 ratio (IC50 of standard peptide / IC50 of test peptide)"},
      {"binder": "EFAGCKKI (also called Her2/neu.363 (8-mer))", "note": "[HER2/neu peptide, position 363, 8 amino acids]", "relative binding ratio": "-0.0003 ratio (IC50 of standard peptide / IC50 of test peptide)"}
    ]},
    {"target": "HLA-A*0301 (purified HLA class I molecule) (human)", "experiment": "competition vs 125I standard peptide, purified HLA", "values": [
      {"binder": "MALESILRRR", "note": "[HER2/neu peptide, position 889, 10 amino acids]", "relative binding ratio": "0.0011 ratio (IC50 standard/IC50 test)"},
      {"binder": "MIDSECRPR", "note": "[HER2/neu peptide, position 960, 9 amino acids]", "relative binding ratio": "0.0017 ratio (IC50 standard/IC50 test)"},
      {"binder": "LVHRDLAAR", "note": "[HER2/neu peptide, position 841, 9 amino acids]", "relative binding ratio": "0.004 ratio (IC50 standard/IC50 test)"}
    ]},
    {"target": "T2, HLA-A*1101 (purified HLA class I molecule) (human)", "T2 construct": "Purified MHC molecule", "experiment": "competition vs 125I standard peptide, purified HLA", "values": [
      {"binder": "MALESILRRR", "note": "[HER2/neu peptide, position 889, 10 amino acids]", "relative binding ratio": "0.0003 ratio (IC50 standard/IC50 test)"},
      {"binder": "MIDSECRPR", "note": "[HER2/neu peptide, position 960, 9 amino acids]", "relative binding ratio": "0.0006 ratio (IC50 standard/IC50 test)"},
      {"binder": "LVHRDLAAR", "note": "[HER2/neu peptide, position 841, 9 amino acids]", "relative binding ratio": "0.0014 ratio (IC50 standard/IC50 test)"}
    ]},
    {"target": "HLA-A*1101 (human)", "experiment": "competitive inhibition of 125I-labeled probe peptide binding to purified HLA-A*1101, gel filtration", "values": [
      {"binder": "ASPLDSTFY", "note": "[HER2/neu peptide, position 997, 9 amino acids]", "relative binding ratio": "0.0004 ratio (IC50 of standard peptide / IC50 of test peptide)"},
      {"binder": "CTGTDMKLR", "note": "[HER2/neu peptide, position 26, 9 amino acids]", "relative binding ratio": "0.0005 ratio (IC50 of standard peptide / IC50 of test peptide)"},
      {"binder": "CVARCPSGVK", "note": "[HER2/neu peptide, position 596, 10 amino acids]", "relative binding ratio": "0.0042 ratio (IC50 of standard peptide / IC50 of test peptide)"},
      {"binder": "CSPMCKGSR", "note": "[HER2/neu peptide, position 195, 9 amino acids]", "relative binding ratio": "-0.0001 ratio (IC50 of standard peptide / IC50 of test peptide)"},
      {"binder": "ALTLIDTNR", "note": "[HER2/neu peptide, position 180, 9 amino acids]", "relative binding ratio": "0.0005 ratio (IC50 of standard peptide / IC50 of test peptide)"},
      {"binder": "CAAGCTGPK", "note": "[HER2/neu peptide, position 240, 9 amino acids]", "relative binding ratio": "0.0021 ratio (IC50 of standard peptide / IC50 of test peptide)"},
      {"binder": "ALESILRRR", "note": "[HER2/neu peptide, position 890, 9 amino acids]", "relative binding ratio": "0.0006 ratio (IC50 of standard peptide / IC50 of test peptide)"},
      {"binder": "DLAARNVLVK", "note": "[HER2/neu peptide, position 845, 10 amino acids]", "relative binding ratio": "0.0007 ratio (IC50 of standard peptide / IC50 of test peptide)"},
      {"binder": "CLLDHVRENR", "note": "[HER2/neu peptide, position 805, 10 amino acids]", "relative binding ratio": "0.0001 ratio (IC50 of standard peptide / IC50 of test peptide)"},
      {"binder": "DVRPQPPSPR", "note": "[HER2/neu peptide, position 1144, 10 amino acids]", "relative binding ratio": "0.0001 ratio (IC50 of standard peptide / IC50 of test peptide)"},
      {"binder": "DLSYMPIWK", "note": "[HER2/neu peptide, position 607, 9 amino acids]", "relative binding ratio": "0.01 ratio (IC50 of standard peptide / IC50 of test peptide)"},
      {"binder": "CVNCSQFLR (also called Her2/neu.528)", "note": "[HER2/neu peptide, position 528, 9 amino acids]", "relative binding ratio": "0.031 ratio (IC50 of standard peptide / IC50 of test peptide)"},
      {"binder": "AFSPAFDNLY", "note": "[HER2/neu peptide, position 1212, 10 amino acids]", "relative binding ratio": "0.0003 ratio (IC50 of standard peptide / IC50 of test peptide)"},
      {"binder": "ASCVTACPY (also called Her2/neu.293)", "note": "[HER2/neu peptide, position 293, 9 amino acids]", "relative binding ratio": "0.0074 ratio (IC50 of standard peptide / IC50 of test peptide)"},
      {"binder": "CSKPCARVCY", "note": "[HER2/neu peptide, position 334, 10 amino acids]", "relative binding ratio": "0.0002 ratio (IC50 of standard peptide / IC50 of test peptide)"},
      {"binder": "AMPNQAQMR (T0001 prints N there)", "note": "[HER2/neu peptide, position 705, 9 amino acids]", "relative binding ratio": "0.0006 ratio (IC50 of standard peptide / IC50 of test peptide)"},
      {"binder": "DSECRPRFR", "note": "[HER2/neu peptide, position 962, 9 amino acids]", "relative binding ratio": "-0.0002 ratio (IC50 of standard peptide / IC50 of test peptide)"},
      {"binder": "CAGGCARCK", "note": "[HER2/neu peptide, position 220, 9 amino acids]", "relative binding ratio": "-0.0002 ratio (IC50 of standard peptide / IC50 of test peptide)"},
      {"binder": "CVTACPYNY", "note": "[HER2/neu peptide, position 295, 9 amino acids]", "relative binding ratio": "0.0004 ratio (IC50 of standard peptide / IC50 of test peptide)"}
    ]},
    {"target": "HLA-A*1101 (human)", "experiment": "inhibition of 125I-labelled probe peptide binding to purified HLA-A*1101, gel filtration; relative to standard peptide 940.06", "values": [
      {"binder": "PLPSETDGY (also called HER2/neu 1119-1127)", "note": "[HER2/neu A11 motif peptide, position 1119, 9 amino acids]", "relative binding ratio": "0.0002 ratio (IC50 of standard peptide / IC50 of test peptide)"},
      {"binder": "NVKIPVAIKV (Built as this row prints it (length 10); also called HER2/neu 745-754)", "note": "[HER2/neu A11 motif peptide, position 745, 10 amino acids]", "relative binding ratio": "0.0007 ratio (IC50 of standard peptide / IC50 of test peptide)"},
      {"binder": "NIQEFAGCK", "note": "[HER2/neu A11 motif peptide, position 360, 9 amino acids]", "relative binding ratio": "0.0036 ratio (IC50 of standard peptide / IC50 of test peptide)"},
      {"binder": "PAGATLERPK (also called HER2/neu 1162-1171)", "note": "[HER2/neu A11 motif peptide, position 1162, 10 amino acids]", "relative binding ratio": "-0.0002 ratio (IC50 of standard peptide / IC50 of test peptide)"},
      {"binder": "PASPLDSTFY (also called HER2/neu 996-1005)", "note": "[HER2/neu A11 motif peptide, position 996, 10 amino acids]", "relative binding ratio": "0.0001 ratio (IC50 of standard peptide / IC50 of test peptide)"},
      {"binder": "NIQEFAGCKK (also called HER2/neu 360-369)", "note": "[HER2/neu A11 motif peptide, position 360, 10 amino acids]", "relative binding ratio": "0.0056 ratio (IC50 of standard peptide / IC50 of test peptide)"},
      {"binder": "MGDLVDAEEY (also called HER2/neu 1014-1023)", "note": "[HER2/neu A11 motif peptide, position 1014, 10 amino acids]", "relative binding ratio": "0.0002 ratio (IC50 of standard peptide / IC50 of test peptide)"},
      {"binder": "LVHRDLAAR (also called HER2/neu 841-849)", "note": "[HER2/neu A11 motif peptide, position 841, 9 amino acids]", "relative binding ratio": "0.0014 ratio (IC50 of standard peptide / IC50 of test peptide)"},
      {"binder": "MIDSECRPR", "note": "[HER2/neu A11 motif peptide, position 960, 9 amino acids]", "relative binding ratio": "0.0006 ratio (IC50 of standard peptide / IC50 of test peptide)"},
      {"binder": "MALESILRRR (also called HER2/neu 889-898)", "note": "[HER2/neu A11 motif peptide, position 889, 10 amino acids]", "relative binding ratio": "0.0003 ratio (IC50 of standard peptide / IC50 of test peptide)"},
      {"binder": "LTLIDTNRSR (also called HER2/neu 181-190)", "note": "[HER2/neu A11 motif peptide, position 181, 10 amino acids]", "relative binding ratio": "0.0005 ratio (IC50 of standard peptide / IC50 of test peptide)"}
    ]}
  ]
}
